What was measured:
[1] = target: myosin subfragment-1 (S1) from rabbit skeletal muscle (rabbit)
[2] = target: myosin subfragment-1 (S1) from rabbit skeletal muscle (rabbit); remark: listed apart in the source

Row | apparent Kd of the inhibition of actin filament gliding velocity (myosin S1 fixed on nitrocellulose-coated coverslips, central domain titrated in the assay buffer; 2.2 uM halted gliding) [1] [nM] | apparent Kd of the inhibition of actin filament gliding velocity (myosin S1 fixed on nitrocellulose-coated coverslips, UNC-45B titrated in the assay buffer; 2.8 uM inhibited translocation completely) [2] [nM] | Molecule
1 | 400 |  | central domain of Mus musculus UNC-45B (domain or fragment)
2 |  | 200 | full-length Mus musculus UNC-45B (natural protein) MAEAEAAQLKEEGNRHFQLQDYKAATKSYSQALKLTKDKALLATLYRNRAACGLKMESYAQAASDASRAIDINSADIKALYRRCQALEHLGKLDQAFKDVQRCATLEPRNQNFQETLRRLNTSIQEQLRVQFSTDSRVQTMFEILLNENSEADKREKAANNLIVLGREEAGAERIFQSNGVALLLQLMNTQRPELLLAAVRTLSGMCSGHRARATAILHAVRIDRICSLMALENEEMSLAVCNLLQAIIDSLSGEDKREHRGKEEALVLDTKKDLKQITSHLLDMLVSKKVSGQGRDQALNLLNKNVPRKDLSIHDNSRTIYVVDNGLRKILKVVGQVPDLPSCLPLTDNTRMLASILINKLYDDLRCDPERDHFRKICEEYITSKFDPQDMDKNVNAIQTVSGILQGPFDLGNQLLGMKGVMEMMVALCGSEREADQLVAVEALIHASTKLSRATFIITNGVTLLKQIYKTTKNEKIKIRTLVGLCKLGSAGGSDYGLRQFAEGSTEKLAKQCRKWLCNTAIDTRTRRWAVEGLAYLTLDADVKDDFVQDIPALQAMFELAKARTSDKTILYSVANTLVNCTNSYDVKEVVPELVQLAKFSKQHVPEEHPKDKKDFVDLRVKRLLKAGVISALACMVKADSAILTDQTKELLARVFLALCDNPKDRGTIVAQGGGKALIPLALEGTDVGKVKAAHGLAKIAAVSNPDIAFPGERVYEVVRPLVSLLDTQRDGLQNYEALLGLTNLSGRSDKLRQKIFKEKALPDIENYMFENHDQLRQAATECMCNMVLNKEVQERFLADGNDRLKLVVLLCGEDDHKLQNAAAGALAMLTAAHKKLCLKMTEVTTQWLEILQRLCLHDQLSVQHRGLVIAHNLLSADAELARKLVESELLEILTVVGKQEPDEKRAAVVQTARECLIKCMDYGFIKPVS
